Test results taken from publication PMC7099005, “Function-based high-throughput screening for antibody antagonists and agonists against G protein-coupled receptors” (Communications Biology, 2020).

B1: sdAb antagonist JN400 (VHH)
VHH: QVQLVESGGGSVQSGGSLRLSCAASGSTYRSHCMGWFRQAPGKEREEVAIMTRSRGTSYADSVKGRFTISQDNTKNILYLQMNSLKPEDTAMYYCAAVPRAGIGDGGYCKWNMKDSGSWGQGTLVTVSS
B2: sdAb antagonist JN413 (VHH)
VHH: DVQLVESGGGSVQSGGSLRLSCAASGSTYRSHCMGWFRQAPGKEREEVAIMTRSRGTSYADSVKGRFTISQDNTKNILYLQMNSLKPEDTAMYYCAAVPRAGIGDGAYCKWNMKDSGSWGQGTLVTVSS
B3: sdAb antagonist JN402 (VHH)
VHH: QVQLVESGGGSVQAGGSLRLSCAASGSTYSSHCMGWFRQAPGKEREEVALMTRARGTSYADSVKGRFTISQDNTKNILYLQMNSLKPEDTAMYYCAAVPRAGIETGAYCKWNMKDSGSWGQGTLVTVSS
B4: sdAb antagonist JN414 (VHH)
VHH: QVQLVESGGGSVQSGGSLTLSCAASGSTYSSHCMGWFRQAPGKEREGVALMTRSRGTSYADSVKGRFTISQDNTKNILYLQMNSLKPEDTAMYYCAAVPRAGIESGAYCKWNMKDSGSWGQGTLVTVSS
B5: sdAb antagonist JN401 (VHH)
VHH: HVQLVESGGGSVQSGGSLRLSCVASGITFSLYCMYWFRQAPGKEREAVASIRSTGATVYGDSVKGRFTISRDSAKNTLYLQMNSLNPEDTAMYYCAAAKKMLYGPGCGSYKDWGQGIQVTVSS
B6: sdAb antagonist JN404 (VHH)
VHH: QVQLVESGGGSVQAGGSLTLSCVGSGFSWSLNCMSWFRQAPGSEREGVAIFYSETGGAYYADSVEGRFSISQVNAGNTVLLRMNSLRPEDTAMYYCAAGYGCGSTESWWTYDYIFWGQGTLVTVSS
notes: camelid sdAb from a camel immunised with human APJ nanodiscs; source: FreeStyle 293F, transient (pTT5), purified (Ni-NTA)
B7: sdAb antagonist JN409 (VHH)
VHH: QVQLVESGGGSVQSGGSLRLSCAASGDTSSRSCMGWFRQAPGKEREWVGRILNAGITSYADSVKGRFTISQDNVKNTLYLQMNSLNSEDTAIYYCAAGRTSYAGSWYCRYNYWGQGTQVTVSS
B8: sdAb antagonist JN411 (VHH)
VHH: HVQLVESGGGSVQAGGSLRLTCAASGLAYSRTCMGWFRQAPGKEREVVATIRRDGTTTYADSVKGRFTISRDNTRNTLALQMNSLKPEDSAMYYCAAVWVALGVPTSVCPSEYKFWGQGTLVTVSS
B9: sdAb agonist JN300 (VHH)
VHH: HVQLVESGGGSVQAGGSLRLSCAASGYVGSMGWFRQAPGKDREGVAAFDFDGRAKHADSVKGRFTISRDNAKNTLYLQMNNLKPEDTAMYYCARSARQLLMLSHNPSDFGYWGQGTQVTVSS
notes: as for B6
B10: sdAb antagonist JN406 (VHH)
VHH: EVQLVESGGGSVQSGGSLRLSCAASGSTYRSHCMGWFRQAPGKEREGVAIMTSRGTTYADSVKGRFTISQDNTKNIFYLQMNSLKPEDTAMYYCAAVPRAGIGDGAFCKWNMKDSGSWGQGTLVTVSS
B11: sdAb antagonist JN412 (VHH)
VHH: HVQLVESGGGSVQAGGSLRLSCAASGSTYRSHCMGWFRQAPGKEREGVAIMTSRGTTYADSVKGRFTISQDNTKNIFYLQMNSLKPEDTAMYYCAAVPRAGIGDGAFCKWNMKDSGSWGQGTLVTVSS

Assays:
[1] = target: T1, human apelin receptor (APJ), wild type (Homo sapiens, UniProt P35414); test: cell-based or functional assay
T1 sequence (P35414 whole entry): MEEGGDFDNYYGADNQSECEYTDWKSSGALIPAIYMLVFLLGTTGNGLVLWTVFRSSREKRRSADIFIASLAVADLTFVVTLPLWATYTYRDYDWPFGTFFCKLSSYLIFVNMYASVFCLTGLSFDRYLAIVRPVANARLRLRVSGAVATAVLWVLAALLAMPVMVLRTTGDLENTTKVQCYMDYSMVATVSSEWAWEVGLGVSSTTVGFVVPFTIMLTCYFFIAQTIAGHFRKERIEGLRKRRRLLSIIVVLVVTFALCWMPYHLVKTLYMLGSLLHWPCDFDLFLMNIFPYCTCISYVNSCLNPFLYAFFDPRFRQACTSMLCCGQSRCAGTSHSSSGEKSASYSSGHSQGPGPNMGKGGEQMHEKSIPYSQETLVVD

[2] = target: T1, human apelin receptor (APJ), wild type; test: flow cytometry on cells; 2 x 10^5 HEK293FT cells stably expressing HA-tagged huAPJ or its mutants stained with 250 nM soluble sdAb at 4 °C for 1 h; mouse anti-his antibody and Alexa Fluor 488 goat anti-mouse; sdAb GeoMean relative to anti-HA staining, normalised to WT APJ; conditions: one partner purified

| Binder | IC50 of soluble sdAb in APJ PathHunter β-arrestin assay, antagonist mode (apelin 13 at EC80; blocks apelin 13 with APJ) [1] | binding result [2] |
| --- | --- | --- |
| B1 | < 200 nM | – |
| B2 | < 200 nM | – |
| B3 | < 200 nM | – |
| B4 | < 200 nM | – |
| B5 | > 200 nM | – |
| B6 | – | binds |
| B7 | > 200 nM | – |
| B8 | < 200 nM | – |
| B9 | – | binds |
| B10 | < 200 nM | – |
| B11 | < 200 nM | – |
